Each block holds one molecule with its values, some of them ahead of it.
What was measured:
Rac1 = molecular target: T1, Rac1 (Homo sapiens, UniProt P63000); assay: In vitro GDP release assay (filter-binding) on Rac1; format: biochemical; conditions: for dissociation of [3H]GDP from Rac1 (GEF activity): purified GST-IBP fusion protein, 4 pmol, [3H]GDP-loaded GST-Rac1
T1 construct: purchased Calbiochem-Novabiochem; host or cells: bacteria
Method: A-C, stimulation of GDP dissociation from Rho GTPases by wild-type or mutant IBP proteins. [^3H]GDP-loaded Rac1 (A), Cdc42 (B), or RhoA (C) was incubated with GST alone or with either wild-type or mutant GST-IBP fusion proteins, as indicated. The exchange reactions were stopped at the indicated time points, and the amount of [^3H]GDP remaining bound to the GTPases was then measured by filtering the quenched reaction samples over nitrocellulose membranes followed by scintillation counting of the membrane-bound radioactivity. The percentage of [^3H]GDP remaining bound at each time point was evaluated relative to the amount of radioactivity remaining at time 0 of the respective reaction, which was set to 100% in each experiment. The results shown are representative of at least three independent assays. D, regulation of IBP GEF activity by Lck and PI(3,4,5)P3. [^3H]GDP-loaded Rac1 was incubated with Lck-phosphorylated wild-type HA-IBP (IBP+Lck) in the presence or absence of PI(3,4,5)P3 (1 μM) for 0 or 40 min. Reactions without IBP (Lck and Lck^+ PI(3,4,5)P3) were simultaneously carried out as control. The exchange reactions were then stopped, and the amount of [^3H]GDP remaining bound to Rac1 was measured by filter-binding method as described for A-C. The percentage of [^3H]GDP remaining bound after incubation for 40 min was evaluated relative to the amount of radioactivity remaining at time 0 of the respective reaction, which was set to 100% in each experiment. The results shown are representative of at least three independent assays.
The in vitro GDP release assays were carried out by filter-binding method as described previously (28-31). To prepare [3H]GDP-loaded GTPases, 40 pmol of bacterially expressed and purified GST-Rac1, GST-Cdc42, or His-RhoA (Calbiochem-Novabiochem) was incubated with 1 μM [3H]GDP in 100 μl of a binding buffer (10 mM HEPES, pH 7.5, 100 mM NaCl, 5 mM MgCl2, 1 mM EGTA, 1 mM dithiothreitol, 50 μg/ml bovine serum albumin) for 60 min at 30° C. The nucleotide exchange reaction was initiated by adding 100 μM nonradioactive GTP and 4 pmol of purified GST alone or GST-IBP fusion proteins (or when appropriate, 4 pmol of purified wild-type HA-IBP either non-phosphorylated or in vitro phosphorylated by purified Lck and cold ATP) to the [3H]GDP-loaded GTPase and then equally splitting and incubating the reaction mixture for the indicated time periods at room temperature. […] The amount of [3H]GDP remaining bound to the GTPases was determined by filtering the quenched reaction samples over nitrocellulose membranes followed by extensive washing of the filters and then quantification of the membrane-bound radioactivity by scintillation counting.

Cdc42 = molecular target: T2, Cdc42 (Homo sapiens, UniProt P60953); assay: In vitro GDP release assay (filter-binding) on Cdc42; format: biochemical; conditions: purified GST-IBP fusion protein, 4 pmol; [3H]GDP-loaded GST-Cdc42
T2 construct: purchased Calbiochem-Novabiochem; host or cells: bacteria
Method: A-C, stimulation of GDP dissociation from Rho GTPases by wild-type or mutant IBP proteins. [^3H]GDP-loaded Rac1 (A), Cdc42 (B), or RhoA (C) was incubated with GST alone or with either wild-type or mutant GST-IBP fusion proteins, as indicated. The exchange reactions were stopped at the indicated time points, and the amount of [^3H]GDP remaining bound to the GTPases was then measured by filtering the quenched reaction samples over nitrocellulose membranes followed by scintillation counting of the membrane-bound radioactivity. The percentage of [^3H]GDP remaining bound at each time point was evaluated relative to the amount of radioactivity remaining at time 0 of the respective reaction, which was set to 100% in each experiment. The results shown are representative of at least three independent assays. D, regulation of IBP GEF activity by Lck and PI(3,4,5)P3. [^3H]GDP-loaded Rac1 was incubated with Lck-phosphorylated wild-type HA-IBP (IBP+Lck) in the presence or absence of PI(3,4,5)P3 (1 μM) for 0 or 40 min. […] The exchange reactions were then stopped, and the amount of [^3H]GDP remaining bound to Rac1 was measured by filter-binding method as described for A-C. The percentage of [^3H]GDP remaining bound after incubation for 40 min was evaluated relative to the amount of radioactivity remaining at time 0 of the respective reaction, which was set to 100% in each experiment. […]

T2 sequence (P60953 whole entry, species assumed, the tested form may be a part): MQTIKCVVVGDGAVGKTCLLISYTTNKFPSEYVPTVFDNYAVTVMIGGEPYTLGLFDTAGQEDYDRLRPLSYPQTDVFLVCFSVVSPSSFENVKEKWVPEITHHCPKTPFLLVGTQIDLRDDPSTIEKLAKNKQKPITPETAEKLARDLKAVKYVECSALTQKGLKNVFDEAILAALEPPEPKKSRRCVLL

dissociation of [3H]GDP from Rac1 (GEF activity) (Rac1): did not stimulate the dissociation
dissociation of [3H]GDP from Cdc42 (GEF activity) (Cdc42): did not stimulate the dissociation
Molecule: wild-type IBP: purified recombinant full-length human IBP (IRF-4 Binding Protein), GST fusion or HA-tagged

ability of wild-type IBP to promote GDP-GTP exchange on Rac1 after phosphorylation by Lck (Rac1; purified HA-IBP phosphorylated in vitro by purified Lck, 40 min): enhanced ability
Molecule: Lck: purified Lck kinase, Src family protein tyrosine kinase, used to phosphorylate IBP in vitro

GEF activity of Lck-phosphorylated wild-type IBP on Rac1 on addition of PI(3,4,5)P3 (Rac1; PI(3,4,5)P3 1 μM, 40 min): stimulated
Molecule: phosphatidylinositol 3,4,5-triphosphate [PI(3,4,5)P3, reference compound]

dissociation of [3H]GDP from Rac1 (GEF activity) (Rac1): stimulated rapid GDP dissociation
dissociation of [3H]GDP from Cdc42 (GEF activity) (Cdc42): stimulated rapid GDP dissociation
B1: IBP 313-631: IBP mutant containing the putative DH domain alone, GST fusion protein (protein, UniProt Q9H4E7 313-631, looked up, fragment)
chain: LQAEGKTSLHKDLKQKRREQREQRERRRAAKEEELLRLQQLQEEKERKLQELELLQEAQRQAERLLQEEEERRRSQHRELQQALEGQLREAEQARASMQAEMELKEEEAARQRQRIKELEEMQQRLQEALQLEVKARRDEESVRIAQTRLLEEEEEKLKQLMQLKEEQERYIERAQQEKEELQQEMAQQSRSLQQAQQQLEEVRQNRQRADEDVEAAQRKLRQASTNVKHWNVQMNRLMHPIEPGDKRPVTSSSFSGFQPPLLAHRDSSLKRLTRWGSQGNRTPSPNSNEQQKSLNGGDEAPAPASTPQEDKLDPAPEN
modifications: GST fusion
notes: IBP mutant containing the putative DH domain alone, GST fusion protein

Reference: patent publication US20060019915A1, “Method to modulate the immune system with a novel guanine nucleotide exchange factor” (priority 2004, published 2006)
